Data reported in the Human Domainome abundance scans (Beltran et al. 2025).
± gives the uncertainty stated by the source.

B1: GAS2-like protein 1, residues 209 to 276; numbered along this chain, Q99501 (parent)
chain: DELVREILGRCTCPDQFPMIKVSEGKYRVGDSSLLIFVRVLRSHVMVRVGGGWDTLEHYLDKHDPCRC

Variants of: B1
Experiment: abundance fitness (aPCA) (normalised: wild type 0, dead -1); higher = more abundant; growth selection in yeast, the domain comes from the species named
Conditions: Homo sapiens

D31V and D31L are within error of each other in abundance fitness: -0.146 ± 0.042 for the first, -0.141 ± 0.047 for the second.

D31W and D31S are within error of each other in abundance fitness: -0.153 ± 0.11 for the first, -0.07 ± 0.049 for the second.

D31N and D31Q are within error of each other in abundance fitness: 0.084 ± 0.064 for the first, 0.048 ± 0.098 for the second.

D31C and D31I are within error of each other in abundance fitness: -0.146 ± 0.074 for the first, -0.144 ± 0.06 for the second.

L8C and L8S are within error of each other in abundance fitness: -0.47 ± 0.14 for the first, -0.532 ± 0.058 for the second.

L8G and L8Y are within error of each other in abundance fitness: -0.819 ± 0.088 for the first, -1.05 ± 0.19 for the second.

L8I and D15E are within error of each other in abundance fitness: -0.002 ± 0.063 for the first, 0.101 ± 0.052 for the second.

D15Q and D15K are within error of each other in abundance fitness: -0.002 ± 0.081 for the first, 0.034 ± 0.053 for the second.

D15N and D15S are within error of each other in abundance fitness: 0.087 ± 0.077 for the first, 0.026 ± 0.039 for the second.

Going from D15T to M19T, the abundance fitness falls from 0.125 ± 0.059 to -0.96 ± 0.17.

Compared with M19G, M19L is higher in abundance fitness: -0.845 ± 0.17 for the first, -0.011 ± 0.044 for the second.

M19S and M19K are within error of each other in abundance fitness: -0.895 ± 0.13 for the first, -0.527 ± 0.27 for the second.

Compared with M19I, M19P is lower in abundance fitness: -0.345 ± 0.083 for the first, -1.05 ± 0.26 for the second.

M19Q and L60T are within error of each other in abundance fitness: -0.961 ± 0.25 for the first, -0.994 ± 0.21 for the second.

L60E and L60P are within error of each other in abundance fitness: -0.842 ± 0.11 for the first, -0.872 ± 0.12 for the second.

L60W and C66Y are within error of each other in abundance fitness: -0.9 ± 0.25 for the first, -0.594 ± 0.095 for the second.

C66H and I7H are within error of each other in abundance fitness: -0.822 ± 0.4 for the first, -0.473 ± 0.076 for the second.

Going from I7C to I7W, the abundance fitness falls from -0.365 ± 0.069 to -0.748 ± 0.12.

Compared with I7K, V49S is higher in abundance fitness: -0.367 ± 0.12 for the first, -0.048 ± 0.042 for the second.

Compared with V49D, V49N is lower in abundance fitness: 0.256 ± 0.076 for the first, 0.013 ± 0.072 for the second.

Compared with E57F, E57Q is higher in abundance fitness: -0.958 ± 0.14 for the first, -0.235 ± 0.16 for the second.

Going from E57T to E57P, the abundance fitness falls from -0.365 ± 0.077 to -0.922 ± 0.16.

Going from R39H to R39V, the abundance fitness falls from -0.049 ± 0.11 to -0.236 ± 0.069.

First: R39T
Second: R39L
The abundance fitness of the first is higher: -0.058 ± 0.087 for the first, -0.368 ± 0.066 for the second.

First: R39P
Second: K62D
The abundance fitness of the first is lower: -0.728 ± 0.12 for the first, -0.234 ± 0.064 for the second.

First: K62L
Second: K62Q
The abundance fitness of the first is lower: -0.004 ± 0.04 for the first, 0.137 ± 0.09 for the second.

Going from K62W to K62F, the abundance fitness rises from -0.512 ± 0.076 to -0.27 ± 0.11.

First: K62I
Second: K62V
The abundance fitness of the first is lower: -0.078 ± 0.096 for the first, 0.092 ± 0.038 for the second.

K62H and K62C are within error of each other in abundance fitness: -0.298 ± 0.11 for the first, -0.25 ± 0.052 for the second.

R28Y and R28I are within error of each other in abundance fitness: -0.341 ± 0.068 for the first, -0.208 ± 0.068 for the second.

Compared with R28V, R28N is lower in abundance fitness: -0.15 ± 0.048 for the first, -0.857 ± 0.18 for the second.

Going from R28P to D54G, the abundance fitness rises from -0.964 ± 0.18 to 0.115 ± 0.42.

Going from G51H to G51I, the abundance fitness falls from 0.004 ± 0.17 to -0.544 ± 0.12.

Going from G51Y to G51D, the abundance fitness rises from -0.286 ± 0.098 to 0.176 ± 0.057.

Compared with G51Q, F17I is lower in abundance fitness: -0.015 ± 0.067 for the first, -0.846 ± 0.19 for the second.

F17L and F17G are within error of each other in abundance fitness: -0.667 ± 0.049 for the first, -0.743 ± 0.08 for the second.

F17V and F17T are within error of each other in abundance fitness: -0.768 ± 0.082 for the first, -0.858 ± 0.11 for the second.

S33P and S33M are within error of each other in abundance fitness: 0.01 ± 0.047 for the first, -0.074 ± 0.054 for the second.

S33H and S33N are within error of each other in abundance fitness: 0.014 ± 0.077 for the first, 0.113 ± 0.054 for the second.

S33W and S33I are within error of each other in abundance fitness: -0.637 ± 0.099 for the first, -0.856 ± 0.17 for the second.

First: S33L
Second: E2F
The abundance fitness of the first is lower: -0.194 ± 0.046 for the first, 0.1 ± 0.17 for the second.

Going from E2M to E2V, the abundance fitness falls from -0.224 ± 0.087 to -0.434 ± 0.075.

Compared with E2C, E2K is higher in abundance fitness: -0.282 ± 0.091 for the first, 0.031 ± 0.072 for the second.

Going from H58G to H58L, the abundance fitness falls from 0.008 ± 0.044 to -0.673 ± 0.074.

H58P and V4K are within error of each other in abundance fitness: -0.933 ± 0.17 for the first, -0.685 ± 0.23 for the second.

First: V4M
Second: V4I
The abundance fitness of the first is lower: -0.34 ± 0.071 for the first, 0.049 ± 0.043 for the second.

Compared with V4G, T12Q is higher in abundance fitness: -0.966 ± 0.32 for the first, -0.193 ± 0.077 for the second.

T12I and T12C are within error of each other in abundance fitness: -0.313 ± 0.069 for the first, -0.247 ± 0.047 for the second.

T12P and T12Y are within error of each other in abundance fitness: -0.749 ± 0.14 for the first, -0.8 ± 0.19 for the second.

C68V and C68Y are within error of each other in abundance fitness: 0.088 ± 0.043 for the first, 0.047 ± 0.06 for the second.

C68D and C68W are within error of each other in abundance fitness: 0.046 ± 0.19 for the first, -0.051 ± 0.086 for the second.

First: C68F
Second: R5G
The abundance fitness of the first is higher: 0.015 ± 0.078 for the first, -0.158 ± 0.053 for the second.

First: R5P
Second: R5E
The abundance fitness of the first is lower: -0.947 ± 0.21 for the first, 0.056 ± 0.06 for the second.

First: R5Q
Second: R5Y
The abundance fitness of the first is higher: 0.084 ± 0.063 for the first, -0.185 ± 0.099 for the second.

R5F and L3Y are within error of each other in abundance fitness: -0.257 ± 0.11 for the first, -0.268 ± 0.063 for the second.

L3F and L3K are within error of each other in abundance fitness: -0.221 ± 0.14 for the first, -0.06 ± 0.044 for the second.

Going from L3M to V22M, the abundance fitness falls from -0.034 ± 0.063 to -0.251 ± 0.071.

V22S and V22Y are within error of each other in abundance fitness: -0.848 ± 0.098 for the first, -0.795 ± 0.14 for the second.

C11D and C11W are within error of each other in abundance fitness: -0.84 ± 0.29 for the first, -1 ± 0.15 for the second.

Going from C11S to C11A, the abundance fitness rises from -0.961 ± 0.13 to -0.618 ± 0.084.

C11T and C11I are within error of each other in abundance fitness: -0.882 ± 0.12 for the first, -1.08 ± 0.33 for the second.

I20S and I20A are within error of each other in abundance fitness: -0.207 ± 0.064 for the first, -0.216 ± 0.08 for the second.

Compared with I20R, I20L is lower in abundance fitness: -0.009 ± 0.046 for the first, -0.151 ± 0.06 for the second.

I20N and S32E are within error of each other in abundance fitness: -0.111 ± 0.16 for the first, 0.013 ± 0.056 for the second.

Compared with S32D, S32F is lower in abundance fitness: 0.098 ± 0.053 for the first, -0.749 ± 0.11 for the second.

First: S32I
Second: S32P
The abundance fitness of the first is lower: -0.755 ± 0.16 for the first, -0.121 ± 0.056 for the second.

Compared with Y59F, Y59Q is lower in abundance fitness: 0.139 ± 0.11 for the first, -0.55 ± 0.12 for the second.

D1C and D1L are within error of each other in abundance fitness: -0.657 ± 0.23 for the first, -0.761 ± 0.14 for the second.

Going from D1E to V29N, the abundance fitness falls from -0.087 ± 0.2 to -0.793 ± 0.33.

Compared with V29K, V29R is higher in abundance fitness: -0.855 ± 0.19 for the first, -0.305 ± 0.073 for the second.

Compared with V29A, V29F is higher in abundance fitness: -0.34 ± 0.07 for the first, -0.163 ± 0.061 for the second.

First: V29G
Second: V29C
The abundance fitness of the first is lower: -0.807 ± 0.097 for the first, -0.213 ± 0.077 for the second.

E6D and E6N are within error of each other in abundance fitness: -0.136 ± 0.071 for the first, -0.431 ± 0.23 for the second.

E6Y and E6C are within error of each other in abundance fitness: -0.694 ± 0.19 for the first, -0.701 ± 0.14 for the second.

First: E6L
Second: E6V
The abundance fitness of the first is higher: -0.446 ± 0.042 for the first, -0.642 ± 0.1 for the second.

First: G9I
Second: G9R
The abundance fitness of the first is lower: -0.572 ± 0.1 for the first, -0.204 ± 0.043 for the second.

G9L and G9C are within error of each other in abundance fitness: -0.445 ± 0.054 for the first, -0.54 ± 0.088 for the second.

First: G9H
Second: G9Q
The abundance fitness of the first is lower: -0.221 ± 0.071 for the first, 0.061 ± 0.066 for the second.

Going from G9W to G9A, the abundance fitness rises from -0.71 ± 0.073 to 0.007 ± 0.061.

Compared with S43M, S43T is higher in abundance fitness: -0.362 ± 0.12 for the first, -0.011 ± 0.13 for the second.

Compared with S43G, S43N is lower in abundance fitness: 0.253 ± 0.054 for the first, 0.124 ± 0.064 for the second.

S43L and S43V are within error of each other in abundance fitness: -0.648 ± 0.12 for the first, -0.58 ± 0.11 for the second.

Going from S23M to S23I, the abundance fitness falls from -0.47 ± 0.064 to -0.861 ± 0.2.

In the case of S23F, the abundance fitness is reported as -0.83 ± 0.24.
